The record followed here is article PMC12421377, “Molecular basis for the recognition of low-frequency polyadenylation signals by mPSF”.

In one series the target is T1, mPSF (CPSF160-WDR33-CPSF30-Fip1) (human, UniProt Q10570;Q9C0J8;O95639-2;Q6UN15 1-1443;1-572;1-244;1-594). Kind of series: competition fluorescence anisotropy; vs 3 nM FAM-AAUAAA, 30 nM mPSF; 20 mM Tris pH 8.0, 150 mM NaCl, 10 mM DTT, 100 nM BSA, 0.01% NP-40; 45 min on ice, read at room temperature; triplicates. The settings on record: protein: recombinant; copies: 1;1;1;1.
T1 sequence (Q10570 whole entry, chain 1 of 4, the tested form may be a part): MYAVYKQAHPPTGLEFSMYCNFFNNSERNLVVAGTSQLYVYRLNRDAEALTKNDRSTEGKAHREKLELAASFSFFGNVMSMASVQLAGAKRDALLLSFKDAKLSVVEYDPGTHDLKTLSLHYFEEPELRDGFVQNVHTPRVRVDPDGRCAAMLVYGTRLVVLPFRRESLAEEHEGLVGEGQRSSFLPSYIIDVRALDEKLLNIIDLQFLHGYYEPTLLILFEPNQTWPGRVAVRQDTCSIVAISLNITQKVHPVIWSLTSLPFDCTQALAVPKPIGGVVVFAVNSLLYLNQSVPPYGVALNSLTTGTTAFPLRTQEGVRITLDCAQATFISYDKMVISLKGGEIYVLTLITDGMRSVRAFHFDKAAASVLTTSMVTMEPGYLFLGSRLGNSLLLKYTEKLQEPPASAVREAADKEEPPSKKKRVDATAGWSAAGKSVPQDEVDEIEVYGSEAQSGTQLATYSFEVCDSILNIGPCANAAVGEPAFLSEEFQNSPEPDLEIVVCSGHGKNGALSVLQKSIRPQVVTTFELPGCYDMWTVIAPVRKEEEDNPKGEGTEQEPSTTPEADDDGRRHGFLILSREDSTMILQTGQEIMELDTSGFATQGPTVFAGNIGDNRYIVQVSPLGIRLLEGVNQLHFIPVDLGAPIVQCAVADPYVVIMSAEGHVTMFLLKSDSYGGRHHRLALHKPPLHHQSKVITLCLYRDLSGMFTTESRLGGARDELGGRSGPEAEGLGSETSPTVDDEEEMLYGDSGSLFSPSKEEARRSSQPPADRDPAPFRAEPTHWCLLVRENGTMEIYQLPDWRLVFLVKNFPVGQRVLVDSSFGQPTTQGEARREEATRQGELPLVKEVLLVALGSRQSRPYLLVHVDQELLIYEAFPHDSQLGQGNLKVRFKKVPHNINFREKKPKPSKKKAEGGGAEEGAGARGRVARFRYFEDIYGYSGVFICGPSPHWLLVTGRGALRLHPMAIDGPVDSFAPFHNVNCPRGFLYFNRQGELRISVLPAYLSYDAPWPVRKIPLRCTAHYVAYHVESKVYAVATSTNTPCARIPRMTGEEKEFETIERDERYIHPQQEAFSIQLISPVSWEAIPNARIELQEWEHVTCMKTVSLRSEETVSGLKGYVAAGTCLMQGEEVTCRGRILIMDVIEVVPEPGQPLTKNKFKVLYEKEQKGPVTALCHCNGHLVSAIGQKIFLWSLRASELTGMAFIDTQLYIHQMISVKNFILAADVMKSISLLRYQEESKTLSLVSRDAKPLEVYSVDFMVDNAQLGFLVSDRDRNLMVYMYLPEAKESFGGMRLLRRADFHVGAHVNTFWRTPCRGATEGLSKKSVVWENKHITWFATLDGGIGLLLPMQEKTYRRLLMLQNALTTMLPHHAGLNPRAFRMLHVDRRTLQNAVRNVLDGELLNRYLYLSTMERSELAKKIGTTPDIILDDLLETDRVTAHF
T1 sequence (Q9C0J8 1-572, chain 2 of 4): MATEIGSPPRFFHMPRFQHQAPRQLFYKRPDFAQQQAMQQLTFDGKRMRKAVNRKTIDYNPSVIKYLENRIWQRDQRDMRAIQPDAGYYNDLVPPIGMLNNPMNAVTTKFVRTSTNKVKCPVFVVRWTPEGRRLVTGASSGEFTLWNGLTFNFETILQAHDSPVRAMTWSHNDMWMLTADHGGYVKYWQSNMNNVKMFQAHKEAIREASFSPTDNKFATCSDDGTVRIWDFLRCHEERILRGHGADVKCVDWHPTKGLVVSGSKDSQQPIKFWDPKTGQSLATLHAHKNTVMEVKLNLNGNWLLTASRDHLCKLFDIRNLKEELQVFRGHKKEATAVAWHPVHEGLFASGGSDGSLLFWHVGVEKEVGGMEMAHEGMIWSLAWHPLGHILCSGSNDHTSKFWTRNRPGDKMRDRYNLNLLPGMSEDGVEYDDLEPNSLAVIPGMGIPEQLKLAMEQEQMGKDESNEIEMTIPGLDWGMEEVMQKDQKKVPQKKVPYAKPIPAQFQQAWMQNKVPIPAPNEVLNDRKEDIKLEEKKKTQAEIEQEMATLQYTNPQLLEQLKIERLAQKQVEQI
T1 sequence (O95639 other isoform, or with tags, fused parts or gaps, chain 3 of 4): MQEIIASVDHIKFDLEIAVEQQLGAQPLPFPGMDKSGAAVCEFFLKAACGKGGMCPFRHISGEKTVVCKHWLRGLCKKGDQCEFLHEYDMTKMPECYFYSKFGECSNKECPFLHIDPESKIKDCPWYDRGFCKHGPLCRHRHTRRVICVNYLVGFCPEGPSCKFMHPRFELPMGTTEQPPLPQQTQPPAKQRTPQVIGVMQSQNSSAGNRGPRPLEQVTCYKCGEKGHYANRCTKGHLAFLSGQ
T1 sequence (Q6UN15 whole entry, chain 4 of 4, the tested form may be a part): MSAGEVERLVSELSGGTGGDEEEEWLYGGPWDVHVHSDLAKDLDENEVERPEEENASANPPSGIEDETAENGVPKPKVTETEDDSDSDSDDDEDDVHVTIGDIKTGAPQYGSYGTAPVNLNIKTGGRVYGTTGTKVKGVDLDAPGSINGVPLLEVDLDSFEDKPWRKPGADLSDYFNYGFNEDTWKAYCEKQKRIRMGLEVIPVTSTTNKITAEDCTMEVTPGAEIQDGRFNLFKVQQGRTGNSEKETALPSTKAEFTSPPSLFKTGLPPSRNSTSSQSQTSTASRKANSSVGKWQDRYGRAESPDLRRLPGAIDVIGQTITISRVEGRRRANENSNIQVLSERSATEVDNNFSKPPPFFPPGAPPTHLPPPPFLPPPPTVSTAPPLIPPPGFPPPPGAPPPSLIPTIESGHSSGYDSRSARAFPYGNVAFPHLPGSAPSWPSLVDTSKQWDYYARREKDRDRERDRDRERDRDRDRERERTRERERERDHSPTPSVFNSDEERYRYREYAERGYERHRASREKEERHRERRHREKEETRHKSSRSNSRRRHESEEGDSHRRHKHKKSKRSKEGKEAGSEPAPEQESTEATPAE
With UGCAAUAAACAA (ssRNA) [AAUAAA 12-mer], the Kd was found to be 40 nM.

The target in another series is T1, mPSF (CPSF160-WDR33-CPSF30-Fip1). Kind of series: cryo-EM structure (2.5 A); RNA up to 40 uM, mPSF 1.4 uM; 20 mM Tris pH 8.0, 150 mM NaCl, 10 mM DTT, 100 nM BSA, 0.01% NP-40; 45 min on ice, read at room temperature; triplicates. The settings on record: protein: recombinant; copies: 1;1;1;1.
In the case of UGCAGUAAACAA (ssRNA) [AGUAAA 12-mer], the binding result was “binds”.

Another series shares this target. Kind of series: cryo-EM structure (3.1 A); RNA up to 40 uM, mPSF 1.4 uM; 20 mM Tris pH 8.0, 150 mM NaCl, 10 mM DTT, 100 nM BSA, 0.01% NP-40; 45 min on ice, read at room temperature; triplicates. The settings on record: protein: recombinant; copies: 1;1;1;1.
Turning to UGCAAUAAUCAA (ssRNA) [AAUAAU 12-mer], the binding result is “binds”.

For a further series the target is unchanged. The series is described as follows: competition fluorescence anisotropy; vs FAM-AAUAAA; 20 mM Tris pH 8.0, 150 mM NaCl, 10 mM DTT, 100 nM BSA, 0.01% NP-40; 45 min on ice, read at room temperature; triplicates. The settings on record: protein: recombinant; copies: 1;1;1;1.
UGCAAGAAACAA (ssRNA) [AAGAAA 12-mer]: the Kd stood at 1870 nM. On to UGCAAUAGACAA (ssRNA) [AAUAGA 12-mer], for which the Kd worked out at 2000 nM. For UGCAACAAACAA (ssRNA) [AACAAA 12-mer], the dissociation constant Kd stood at 13000 nM.

With UGCAAUAAGCAA (ssRNA) [AAUAAG 12-mer], the dissociation constant Kd was 11500 nM.

Turning to UGCAAUACACAA (ssRNA) [AAUACA 12-mer], the Kd amounted to 2200 nM. On the same count and under the same terms, in the case of UGCAAUAUACAA (ssRNA) [AAUAUA 12-mer] it was 2500 nM.

UGCUAUAAACAA (ssRNA) [CUAUAAA-context UAUAAA 12-mer]: the Kd is 520 nM. For UGCGAUAAACAA (ssRNA) [GAUAAA 12-mer], the Kd stood at 580 nM.

Take UGCAUUAUACAA (ssRNA) [AUUAUA 12-mer]: the Kd is 2140 nM. Still for that read-out and setting: in the case of UGCACUAAACAA (ssRNA) [ACUAAA 12-mer] it was 2700 nM.

With UGCAUUAAACAA (ssRNA) [AUUAAA 12-mer], the Kd came out at 79 nM. Take UGCAAUGAACAA (ssRNA) [AAUGAA 12-mer]: the Kd was 1180 nM.

With UGCCAUAAACAA (ssRNA) [CAUAAA 12-mer], the Kd was 780 nM.
